Consider seven substances from patent US20190284243A1, “BINDING PEPTIDES” (University of Copenhagen, priority 2016, published 2019).

Bridge positions count the residues as written; N and C are the ends. Square brackets hold non-standard residues; d marks the D form. Ends that are not written are not given here. dPra = C#CC[C@@H](N)C(=O)O

The target of experiment [1] is Il10 (Homo sapiens, UniProt P22301). Kind of experiment: Binding of β-bodies with the target compound (Table 1), Il10. Conditions: Purpose Il10; tested for binding with the target compound.
For experiment [2], the system named is GFP. Conditions: GFP 60 nM, both bead types incubated at the same time. How it is done:
GFP (60 nM) was incubated with different β-body beads at the same time, a first type of β-body beads specific for GFP (β-body SEQ ID NO: 1;
[…]) and a second type of β-body beads specific for IL1 (β-body SEQ ID NO: 5).

The subject of experiment [3] is Il1. Nature of the experiment: Selectivity assay GFP vs. IL1: beads incubated with ROX-IL1. The class given is binding. To be noted: ROX-IL1 100 nM, both bead types incubated at the same time. The text has this: The same experiment was repeated with IL1.
The target of experiment [4] is eGFP (Aequorea victoria, UniProt P42212, F64L/H231L/S65T). To be noted: Purpose eGFP; tested for binding with the target compound.
The test system of experiment [5] is HRMVRG-PEGA1900. Kind of experiment: Binding to hexapeptide beads, green fluorescence associated with the beads. Conditions: protein overexpressed in E. coli. The text has this: The fusion protein as well as EGFP was overexpressed in E. coli and purified from the cell lysate using a PEGA solid support with the hexapeptide partner, […] NO: 4), attached.
Experiment [6] addresses T1, Papain (Carica papaya, UniProt P00784).
T1 sequence (P00784 134-345): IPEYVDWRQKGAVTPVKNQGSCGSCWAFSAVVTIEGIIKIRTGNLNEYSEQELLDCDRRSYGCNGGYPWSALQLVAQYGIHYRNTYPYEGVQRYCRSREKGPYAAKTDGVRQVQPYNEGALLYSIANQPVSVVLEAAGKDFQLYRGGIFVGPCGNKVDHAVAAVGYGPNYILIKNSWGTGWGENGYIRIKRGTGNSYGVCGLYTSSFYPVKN
Nature of the experiment: Binding of β-bodies with the target compound (Table 1), Papain. To be noted: Purpose Papain; tested for binding with the target compound.

For experiment [7], the target named is Il2 (Homo sapiens, UniProt P60568). Nature of the experiment: Binding of β-bodies with the target compound (Table 1), Il2. Conditions: Purpose Il2; tested for binding with the target compound.
The target of experiment [8] is Interleukin 2 (Homo sapiens, UniProt P60568). Kind of experiment: Sandwich binding assay on PEGA beads, IL2 model. How it is done:
For sandwich assays β-bodies identified as described in Examples 1 and 2 were synthesized by standard Fmoc-based solid phase peptide synthesis on biocompatible PEGA-beads (e.g. PEGA1900 which has a porosity allowing penetration of proteins up to 70 kDa). PEGA beads are available from Sigma Aldrich.
The sandwich binding assay was performed as follows: four beads with ligand C prepared as described above were added to 50 μL MilliQ water in a microtiter well containing 100 nM of the peptide D. The well was imaged with an ICX73 fluorescence microscope (Olympus) using a ROX filter cube.
The intensity of the fluorescence is a measure of the concentration of IL2 and the affinity of the interaction. The result obtained after 3 min. incubation is shown in FIG. 10 and after 20 min. incubation in FIG. 1D.

Setting [9] is: ligand 3 beads + 100 nM ligand 4, Interleukin 2 50 nM, 3 and 20 min.
[10] abbreviates: ligand 3 beads + 100 nM ligand 4, without IL2 (interaction between the two β-bodies).

Chain of Interleukin 2 (P60568 21-153, species assumed): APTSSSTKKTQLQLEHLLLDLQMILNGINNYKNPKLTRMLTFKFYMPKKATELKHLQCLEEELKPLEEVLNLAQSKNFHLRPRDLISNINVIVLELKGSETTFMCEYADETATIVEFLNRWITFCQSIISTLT
Chain of Il2 (P60568 21-153, species assumed): as above
Chain of Il10 (P22301 19-178, species assumed): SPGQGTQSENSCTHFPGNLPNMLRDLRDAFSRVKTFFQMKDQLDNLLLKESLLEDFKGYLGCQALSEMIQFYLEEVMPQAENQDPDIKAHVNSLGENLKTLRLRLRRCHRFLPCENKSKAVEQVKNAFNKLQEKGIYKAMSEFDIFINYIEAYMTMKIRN

As for “ATNTLTMTWPGRTNTDTFTW (Designed peptide) [SEQ ID NO: 20]”, in experiment [1], the Binding entry is “High”.
Turning to “TETKTVTITRPKMTWTFTHTVTG (Designed peptide; PEPTIDE (1)..(23) GFP) [SEQ ID NO: 1]”, the “Binding of β-body beads to GFP” value in experiment [2] is listed as “underwent binding”. Also, in experiment [3], the “Binding of β-body beads to IL1” value was “only β-body beads specific for IL1 underwent binding”. Also, the Binding entry in experiment [4] is “High”.
As to “TKTRTYTIPGERYTDTWA (Designed peptide) [SEQ ID NO: 21]”, the Binding entry in experiment [1] is “High”.
Take “EGFP: Enhanced Green Fluorescent Protein, overexpressed in E. coli; control without β-body”: the “Binding to HRMVRG-PEGA1900 (green fluorescence associated with the beads)” value in experiment [5] is reported as “does not”.
“IHV-abu(N3)-VTTRTMPGHPIAGADA-pra-TG (IHV[dAbu(N3)]VTTRTMPGHPIAGADA[dPra]TG; triazole 4-21 (inferred); also: X4 listed as D-3-azido-2-aminobutanoic acid, mods say azidohomoalanine) [SEQ ID NO: 49]”: in experiment [6], the Binding entry is reported as “Medium”.
For the substance “NTVTNTMTRPGVTETVTQTD (Designed peptide) [SEQ ID NO: 15]”, the Binding result in experiment [7] is on record as “High”. Moreover, the “ROX fluorescence accumulation in the beads” value was “positive signal” in experiment [8] (setting [9]); “accumulation of significant ROX fluorescence” in experiment [8] (ligand 3 beads + 100 nM ligand 4, Interleukin 2 50 nM, 3 and 20 min, listed as C); “no signal” in experiment [8] (setting [10]); “No fluorescence accumulation over background” in experiment [8] (ligand 3 beads + 100 nM ligand 4, without IL2 (interaction between the two β-bodies), listed as C).
Consider “TRTLTYTEPGITQTKTEA (Designed peptide) [SEQ ID NO: 14]”, for which the Binding result in experiment [7] is on record as “High”. The “ROX fluorescence accumulation in the beads” value is given as “positive signal” in experiment [8] (setting [9]); “accumulation of significant ROX fluorescence” in experiment [8] (ligand 3 beads + 100 nM ligand 4, Interleukin 2 50 nM, 3 and 20 min, listed as D); “no signal” in experiment [8] (setting [10]); “No fluorescence accumulation over background” in experiment [8] (ligand 3 beads + 100 nM ligand 4, without IL2 (interaction between the two β-bodies), listed as D).
